Here are results for 13 molecules from patent publication US20240279345A1, “ALPHA 5 BETA 1 INTEGRIN BINDING AGENTS AND USES THEREOF” (PASITHEA THERAPEUTICS CORP., priority 2021, published 2024).

Assay [1] deals with T1, recombinant mouse α5β1 integrin (mouse, UniProt P11688 45-999; P09055 21-728).
T1 construct: bought recombinant heterodimer (R&D Systems cat. 7728-A5) coated on the plate; also called rm-α5β1
As to the kind of experiment: ELISA, coated integrin, supernatant 1:10. On the procedure: (§1) Plates were washed 3 times with Wash Buffer (1× Tris Buffered Saline containing 0.05% Tween20), blocked with 2% BSA in 1×TBS (made from 10× Thermo Scientific Blocker BSA (10×) in TBS; Thermo Fisher Scientific, Waltham, MA, cat. no. 37520) for 2 hours at room temperature (RT) then incubated with hybridoma supernatants diluted 1:10 with Standard Diluent (2% BSA, 1×TBS, 0.05% Tween20). […] Absorbance 450 nm was measured.
For orientation: An ELISA detects its analyte on a solid surface through an enzyme-linked reagent.

In assay [2] the target is T2, recombinant human α5β1 integrin (human, UniProt P08648 42-995; P05556 21-728).
T2 construct: also called rh-α5β1
T2 sequence (P08648 42-995 limits assumed, form in doubt, chain 1 of 2): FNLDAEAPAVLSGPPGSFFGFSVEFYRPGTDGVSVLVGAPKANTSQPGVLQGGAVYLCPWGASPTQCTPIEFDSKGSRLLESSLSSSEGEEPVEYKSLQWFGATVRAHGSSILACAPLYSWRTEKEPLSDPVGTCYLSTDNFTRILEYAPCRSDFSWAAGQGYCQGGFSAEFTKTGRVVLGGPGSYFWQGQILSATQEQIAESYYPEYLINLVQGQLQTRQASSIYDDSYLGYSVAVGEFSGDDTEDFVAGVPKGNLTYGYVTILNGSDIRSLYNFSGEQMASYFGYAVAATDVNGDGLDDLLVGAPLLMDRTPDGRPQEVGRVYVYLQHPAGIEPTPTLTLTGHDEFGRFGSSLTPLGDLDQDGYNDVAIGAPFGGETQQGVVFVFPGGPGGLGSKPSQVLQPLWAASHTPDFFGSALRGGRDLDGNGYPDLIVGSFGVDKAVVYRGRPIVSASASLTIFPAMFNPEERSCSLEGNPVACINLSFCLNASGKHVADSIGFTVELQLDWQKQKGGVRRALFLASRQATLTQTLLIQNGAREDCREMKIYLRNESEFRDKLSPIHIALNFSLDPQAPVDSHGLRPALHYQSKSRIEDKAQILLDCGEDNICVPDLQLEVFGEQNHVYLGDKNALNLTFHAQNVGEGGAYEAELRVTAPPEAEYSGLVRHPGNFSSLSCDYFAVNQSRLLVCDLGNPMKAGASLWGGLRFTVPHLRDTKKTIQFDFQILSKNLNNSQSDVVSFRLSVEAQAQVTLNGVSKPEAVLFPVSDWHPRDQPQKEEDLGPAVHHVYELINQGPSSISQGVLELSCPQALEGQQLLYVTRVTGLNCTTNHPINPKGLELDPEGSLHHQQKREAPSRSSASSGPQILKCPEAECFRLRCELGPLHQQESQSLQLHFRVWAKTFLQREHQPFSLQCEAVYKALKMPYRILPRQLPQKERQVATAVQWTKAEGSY
T2 sequence (P05556 21-728 limits assumed, form in doubt, chain 2 of 2): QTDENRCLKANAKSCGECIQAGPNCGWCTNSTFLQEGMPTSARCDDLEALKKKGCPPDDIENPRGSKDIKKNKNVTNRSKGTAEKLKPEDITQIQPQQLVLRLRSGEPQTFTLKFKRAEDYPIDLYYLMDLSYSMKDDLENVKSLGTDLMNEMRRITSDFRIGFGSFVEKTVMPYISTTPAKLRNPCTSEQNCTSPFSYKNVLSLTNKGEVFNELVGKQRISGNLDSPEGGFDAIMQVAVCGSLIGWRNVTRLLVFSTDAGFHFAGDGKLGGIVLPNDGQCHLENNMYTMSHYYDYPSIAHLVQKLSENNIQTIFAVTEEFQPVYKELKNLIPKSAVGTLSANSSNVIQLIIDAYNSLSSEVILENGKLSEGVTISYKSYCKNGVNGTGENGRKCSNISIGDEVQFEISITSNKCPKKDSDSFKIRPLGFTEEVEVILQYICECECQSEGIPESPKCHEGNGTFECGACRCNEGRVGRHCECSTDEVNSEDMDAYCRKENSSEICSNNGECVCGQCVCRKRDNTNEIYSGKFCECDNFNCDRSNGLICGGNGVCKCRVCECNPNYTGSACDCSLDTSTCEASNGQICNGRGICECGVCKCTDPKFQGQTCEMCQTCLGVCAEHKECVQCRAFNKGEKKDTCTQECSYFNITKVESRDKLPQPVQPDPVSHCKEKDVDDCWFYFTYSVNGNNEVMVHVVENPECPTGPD
As to the kind of experiment: ELISA, coated integrin, supernatant 1:10. The method, then:
as §1

Assay [3] concerns the target T3, recombinant human α4β1 integrin (human, UniProt P13612 34-977; P05556 21-728).
T3 construct: bought recombinant heterodimer (R&D Systems cat. 5668-A4) coated on the plate; also called rh-α4β1
As to the kind of experiment: ELISA, coated integrin, supernatant 1:10. The method, then: as §1

Assay [4] deals with T4, recombinant human α5β1 integrin (rh-α5β1; R&D Systems, cat. no. 3230-A5) (human, UniProt P08648 42-995; P05556 21-728).
T4 construct: bought recombinant heterodimer
T4 sequence (P08648 42-995 limits assumed, form in doubt, chain 1 of 2): as the sequence (P08648 42-995 limits assumed, form in doubt, chain 1 of 2) above
T4 sequence (P05556 21-728 limits assumed, form in doubt, chain 2 of 2): as the sequence (P05556 21-728 limits assumed, form in doubt, chain 2 of 2) above
Nature of the assay: ELISA, coated rh-α5β1, supernatant 1:10. On the procedure:
as §1

Assay [5] deals with T5, purified recombinant human α5β1 integrin heterodimer, 6×His tagged (rh-α5β1); Acro Biosystems, cat. no. … (human, UniProt P08648 42-995; P05556 21-728).
T5 construct: bought recombinant heterodimer; also called rh-α5β1-6×His tagged protein; His-tagged-α5β1
T5 sequence (P08648 42-995 limits assumed, form in doubt, chain 1 of 2): as the sequence (P08648 42-995 limits assumed, form in doubt, chain 1 of 2) above
T5 sequence (P05556 21-728 limits assumed, form in doubt, chain 2 of 2): as the sequence (P05556 21-728 limits assumed, form in doubt, chain 2 of 2) above
Nature of the assay: BLI (Octet), supernatant mAb on anti-mouse IgG Fc sensor, 20 nM rh-α5β1. From the text:
Anti-Mouse IgG Fc biosensors were used to load each clone supernatant. Assay steps were as follows: Sensor Check (30s)-->Load Ab (700s)-->Quench (480s)-->Baseline(480s)-->Ab Assoc. (600s)-->Dissoc. (600s).
On the technique in general: In BLI a coated tip is dipped into the sample, and binding shifts an interference pattern.

Residue numbers refer to the chain shown, from its start.

T3 sequence (P13612 34-977 limits assumed, form in doubt, chain 1 of 2): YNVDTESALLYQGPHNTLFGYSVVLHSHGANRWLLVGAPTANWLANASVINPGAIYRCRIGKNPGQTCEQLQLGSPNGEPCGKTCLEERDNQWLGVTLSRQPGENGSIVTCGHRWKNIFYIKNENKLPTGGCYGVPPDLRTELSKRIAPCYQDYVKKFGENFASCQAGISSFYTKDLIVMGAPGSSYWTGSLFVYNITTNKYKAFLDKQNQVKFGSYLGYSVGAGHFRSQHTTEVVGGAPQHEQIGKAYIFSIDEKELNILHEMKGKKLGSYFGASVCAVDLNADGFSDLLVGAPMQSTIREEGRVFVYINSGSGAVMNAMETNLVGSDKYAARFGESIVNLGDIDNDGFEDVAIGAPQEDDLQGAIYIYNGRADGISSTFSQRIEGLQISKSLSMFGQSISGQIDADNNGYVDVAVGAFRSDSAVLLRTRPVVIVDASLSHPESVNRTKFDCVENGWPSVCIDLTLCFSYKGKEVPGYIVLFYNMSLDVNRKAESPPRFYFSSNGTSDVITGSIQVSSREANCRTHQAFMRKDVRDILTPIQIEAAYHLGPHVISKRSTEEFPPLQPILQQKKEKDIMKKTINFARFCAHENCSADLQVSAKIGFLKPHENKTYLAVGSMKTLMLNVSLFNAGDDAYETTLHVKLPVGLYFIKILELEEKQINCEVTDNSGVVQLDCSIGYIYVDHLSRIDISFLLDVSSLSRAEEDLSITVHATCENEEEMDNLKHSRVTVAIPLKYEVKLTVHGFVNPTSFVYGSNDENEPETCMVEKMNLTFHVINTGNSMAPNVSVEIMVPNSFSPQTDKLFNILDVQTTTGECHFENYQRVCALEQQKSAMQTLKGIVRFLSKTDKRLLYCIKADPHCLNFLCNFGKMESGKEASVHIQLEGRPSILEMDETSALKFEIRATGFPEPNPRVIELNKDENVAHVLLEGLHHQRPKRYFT
T3 sequence (P05556 21-728 limits assumed, form in doubt, chain 2 of 2): as the sequence (P05556 21-728 limits assumed, form in doubt, chain 2 of 2) above

B1: A-14G08 (antibody, V domains shown)
VH: QVQLQQPGAELVKPGASVKLSCKASGYTFTIYWINWVKQRPGQGLEWIGKIYPGSISTDYNEKFKSKATLTVDTSSSTAYMQLSSLTSDDSAVYYCAITGTGGLAYWGQGTLVTVSA
VL: ENVLTQSPAIMSASLGEKVTMTCRASSSVNYMYWYQQKSDASPKLWIYFTSSLAPGVPGRFSGSGSGNSYSLTISTMEGEDAATYYCQQFTTSPFTFGSGTKLEIK
notes: mouse hybridoma supernatant
Take B1: the “Absorbance 450 nm” value in assay [1] was 0.11 A450; in assay [2], 1.17 A450; in assay [3] it was 0.108 A450.

B2: A-15H11 (antibody, V domains shown)
VH: B1 VH
VL: B1 VL
notes: mouse hybridoma supernatant
For the molecule B2, the figures for the “Absorbance 450 nm” value in assay [1], in assay [2] and in assay [3] were 0.0799 A450, 1.25 A450 and 0.081 A450, respectively.

B3: A-3A08 (antibody, V domains shown)
VH: QVQLKESGPGLVAPSQSLSITCTISGFSLTTYGVHWVRQPPGKGLEWLVVIWSDGSTTYNSALKSRLNITKDNSKSQVFLKMNSLQTDDTAMYYCVRHGGLLRRDAMDYWGQGTSVTVSS
VL: QIVLTQSPAIMSASLGERVTMTCTASSSVSSNSFHWYQQKPGSSPKLWLYSTSNLASGVPARFSGSGSGTSYSLTISSMEAEDAATYYCHQYLRSPPTFGGGTKLEIK
As for B3, the Absorbance 450 nm in assay [1] worked out at 0.671 A450.

B4: A-3A08 (antibody, V domains shown)
VH: B3 VH
VL: B3 VL
notes: mouse hybridoma supernatant
Turning to B4, the “Absorbance 450 nm” value was 0.352 A450 in assay [2] and 0.0769 A450 in assay [3].

B5: A-4G02 (antibody, V domains shown)
VH: QVQLKESGPGLVAPSQSLSITCTISGFSLTSYGVHWVRQPPGKGLEWLVVIWSDGSTTYNSTLKSRLSISKDNSKSQVFFKMNSLQTDDTAMYYCARHYDYDGDWFAYWGQGTLVTVSA
VL: B3 VL with S28R, F34L, L49I
notes: mouse hybridoma supernatant
Turning to B5, the figures for the “Absorbance 450 nm” value in assay [1], in assay [2] and in assay [3] were 0.0959 A450, 0.687 A450 and 0.0801 A450, respectively.

B6: A2-8H11 (antibody, V domains shown)
VH: B3 VH
VL: B3 VL
notes: mouse hybridoma antibody
Turning to B6, in assay [4], the “Absorbance 450 nm” value worked out at 1.45. In assay [5], the Kd (in general, the equilibrium constant for the complex coming apart) came to 4.81 nM; the koff (commonly the first-order rate constant of dissociation) is 0.00139 s⁻¹; the kon (as a rule, the rate constant with which the complex forms) is 289000 M⁻¹ s⁻¹.

B7: A2-9A11 (antibody, V domains shown)
VH: B3 VH
VL: B3 VL
notes: mouse hybridoma antibody
For B7, the “Absorbance 450 nm” value in assay [4] stood at 1.91. Besides, in assay [5], the Kd was 5.02 nM, the koff came out at 0.00139 s⁻¹ and the kon amounted to 277000 M⁻¹ s⁻¹.

B8: A2-6C10 (antibody, V domains shown)
VH: B3 VH
VL: B3 VL
notes: mouse hybridoma antibody
With B8, the “Absorbance 450 nm” value in assay [4] was 2.01. For the same molecule, in assay [5], the equilibrium dissociation constant (Kd) was 3.5 nM, the koff was 0.000911 s⁻¹ and the kon was 260000 M⁻¹ s⁻¹.

B9: A-11G01 (antibody, V domains shown)
VH: B3 VH
VL: B3 VL
notes: mouse hybridoma supernatant
As to B9, the “Absorbance 450 nm” value in assay [1] is 0.0766 A450; in assay [2], 0.519 A450; in assay [3], 0.0843 A450.

B10: C-14D12 (antibody, V domains shown)
VH: QVQLKESGPDLVAPSQSLSITCTVSGFSLTDYGVHWVRQPPGKGLEWLVVIWSDGSTTYNSALKSRLSITKDTSKRQVFLKMNSLQTDDTAMYYCARHAPSFIRYGSRYDALDYWGQGTSVTVSS
VL: B3 VL with M21L, S30T, N32S, S33F, F34L, L49I, L93H
notes: mouse hybridoma supernatant in this assay
Turning to B10, the “Absorbance 450 nm” value in assay [1] is 0.17 A450; in assay [2], 0.702 A450; in assay [3], 0.171 A450.

B11: A-7D06 (antibody, V domains shown)
VH: B3 VH
VL: B3 VL
notes: mouse hybridoma supernatant
Consider B11, for which the “Absorbance 450 nm” value in assay [1] was 0.0755 A450; in assay [2] it was 0.613 A450; in assay [3], 0.0848 A450.

B12: C-8G11 (antibody, V domains shown)
VH: B10 VH
VL: B3 VL with M21L, S30T, N32S, S33F, F34L, L49I, L93H
notes: mouse hybridoma supernatant
As to B12, the results for the “Absorbance 450 nm” value in assay [1], in assay [2] and in assay [3] were 0.0872 A450, 0.805 A450 and 0.165 A450, respectively.

B13: A-15B08 (antibody, V domains shown)
VH: B5 VH
VL: B3 VL with S28R, F34L, L49I
notes: as for B10
As for B13, the results for the “Absorbance 450 nm” value in assay [1], in assay [2] and in assay [3] were 0.0924 A450, 0.824 A450 and 0.0855 A450, respectively.
